Measured values published in article PMC6057269 (2018).

B1: GST-tagged FCHSD2 SH3-2 (aa568-629), wild type [human] / ITSN1 SH3d (aa1076-1138), recombinant [human] (parent complex)
chain 1: SVCFVKALYDYEGQTDDELSFPEGAIIRILNKENQDDDGFWEGEFNGRIGVFPSVLVEELSA
chain 2: PEIAQVIASYTATGPEQLTLAPGQLILIRKKNPGGWWEGELQARGKKRQIGWFPANYVKLLSP
B2: GST-tagged ITSN1 SH3d (aa1076-1138), wild type [human] / FCHSD2 SH3-2 (aa568-629), recombinant [human] (parent complex)
chain 1: B1 chain 2
chain 2: B1 chain 1

Variants of: B1
Experiment: GST pull-down, Coomassie stained gel, band quantification; n = 3 experiments, mean ± SD; parent: 1; read off a plot

Row | Variant | ratio to parent
1 | chain 1 D16A | ~1.1
2 | chain 1 Y9S | ~0.45
3 | chain 1 D17K | ~0.9

The remaining lines, values ahead:

Row | ratio to parent | Variant
4 | ~0.3 | chain 1 F40S
5 | ~1.2 | chain 1 N46A
6 | ~0.15 | chain 1 Y9S, chain 1 F40S
7 | ~0.1 | chain 1 V55K, chain 1 L56K
8 | ~0.8 | chain 1 V55S

Variants of: B2
Experiment: as above

Row | Variant | ratio to parent
9 | chain 1 R44E | ~0.08
10 | chain 1 I3K | ~0.08
11 | chain 1 R48E | ~0.4

The remaining lines, values ahead:

Row | ratio to parent | Variant
12 | ~1.1 | chain 1 T11A
13 | ~0.08 | chain 1 R44A
14 | ~0.08 | chain 1 I3S
